Data from patent publication US20220324954A1 (SHANGHAI NOVAMAB BIOPHARMACEUTICALS, published 2022).

T1: human VEGFB (human, UniProt P49765-2 22-188, limits assumed, biotinylated (sites not given))
T1 construct: also called Biotin-HVEGFB
T1 sequence (looked up): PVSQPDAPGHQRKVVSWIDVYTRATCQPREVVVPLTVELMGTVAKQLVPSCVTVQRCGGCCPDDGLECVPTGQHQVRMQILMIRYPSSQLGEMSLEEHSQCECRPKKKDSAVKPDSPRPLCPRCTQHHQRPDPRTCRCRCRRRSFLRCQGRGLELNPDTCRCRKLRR

T2: human VEGFC (human, UniProt P49767 112-227, limits assumed, biotinylated (sites not given))
T2 construct: also called Biotin-HVEGFC
T2 sequence (looked up): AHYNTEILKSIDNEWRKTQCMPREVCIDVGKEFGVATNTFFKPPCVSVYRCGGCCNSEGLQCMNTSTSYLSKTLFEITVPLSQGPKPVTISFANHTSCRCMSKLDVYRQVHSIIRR

T3: human VEGFD (human, UniProt O43915 89-205, limits assumed, biotinylated (sites not given))
T3 construct: also called Biotin-HVEGFD
T3 sequence (looked up): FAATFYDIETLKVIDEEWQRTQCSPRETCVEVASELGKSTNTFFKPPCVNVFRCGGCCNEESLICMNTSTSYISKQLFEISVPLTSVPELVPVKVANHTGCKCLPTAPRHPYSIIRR

B1: Nb24 (Fc fusion)
chain: QVQLQESGGGSVQAGGSLRLSCTASGFTFDDPDVGWFRQAPGNECELVSTISKDGSTYYTDSVKGRFTISQDYAKNTVYLQMNSLKPEDTAVYYCAADSNPIAPIRTCLGWYNYWGQGTQVTVSS
notes: also called candidate antibody Nb24; antibody before humanization; not shown: Fc
B2: huNb24 (Fc fusion)
chain: EVQLQESGGGLVQPGGSLRLSCTASGFTFDDPDVGWFRQAPGNECELVSTISKDGSTYYTDSVKGRFTISRDYAKNTVYLQMNSLRAEDTAVYYCAADSNPIAPIRTCLGWYNYWGQGTLVTVSS
notes: also called humanized antibody huNb24; antibody after humanization; not shown: Fc from the pFUSE vector
B3: hu bi-Nb24(Y) (VHH)
chain: EVQLQESGGGLVQPGGSLRLSCTASGFTFDDPDVGWFRQAPGNECELVSTISKDGSTYYTDSVKGRFTISRDYAKNTVYLQMNSLRAEDTAVYYCAADSNPIAPIRTCLGWYNYWGQGTLVTVSSGGGGSGGGSEVQLQESGGGLVQPGGSLRLSCTASGFTFDDPDVGWFRQAPGNECELVSTISKDGSTYYTDSVKGRFTISRDYAKNTVYLQMNSLRAEDTAVYYCAADSNPIAPIRTCLGWYNYWGQGTLVTVSS
notes: Bivalent tandem VHH, one chain, expressed in Pichia pastoris, no Fc; also called humanized bivalent antibody expressed by the yeast; huNb24 bivalent

How the values were obtained:
human VEGFA [1] = target: T4, human VEGFA (human, UniProt P15692-4 27-191, limits assumed, biotinylated (sites not given) in the ELISA assays); experiment: blocking ELISA: VEGFR2 coated, biotinylated VEGFA with antibody dilutions (FIG. 4)
T4 construct: also called biotinylated VEGFA protein; biotin-HVEGFA
T4 sequence (P15692 other isoform, or with tags, fused parts or gaps limits assumed): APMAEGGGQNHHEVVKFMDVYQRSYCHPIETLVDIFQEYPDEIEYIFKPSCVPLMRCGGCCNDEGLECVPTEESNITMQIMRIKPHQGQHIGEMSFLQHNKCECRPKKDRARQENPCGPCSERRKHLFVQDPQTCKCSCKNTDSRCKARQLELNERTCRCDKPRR
Experimental: (§1) (4) After washing with PBST for 5 times, 100 uL SA-HRP (1:100000 dilution) was added and incubated at 37° C. for 1 hour. (5) After washing with PBST for 5 times, TMB chromochrome solution 100 uL was added, and developed at 37° C. for 10 min, 2M H₂SO₄ (50 uL/well) was added to terminate the reaction, and the absorption value was measured at 450 nm wavelength with a microplate reader.

human VEGFA [2] = target: T4, human VEGFA; experiment: blocking ELISA: VEGFR2 coated, biotinylated VEGFA with antibody dilutions (FIG. 1)
Experimental: as §1

human VEGFA [3] = target: T4, human VEGFA; experiment: cell-based or functional assay
human VEGFA [4] = target: T4, human VEGFA; experiment: blocking ELISA: VEGFR2 coated, biotinylated VEGFA with antibody dilutions (FIG. 5)
Experimental: as §1

human VEGFA [5] = target: T4, human VEGFA; experiment: blocking ELISA: VEGFR2 coated, biotinylated VEGFA with antibody dilutions (FIG. 6)
Experimental: as §1

human VEGFB = target: T1, human VEGFB; experiment: ELISA, antibody coated, biotinylated ligand, SA-HRP
Experimental: (§2) ELISA was used to verify whether the candidate antibodies could cross-react with VEGF homologous proteins. (1) 1 ug/mL antibody to be measured was added to the ELISA plate and coated overnight at 4° C. […] (4) After washing with PBST for 5 times, 100 uL diluted SA-HRP (1:5000 diluted) was added at 37° C. and incubated for 1 hour; (5) After washing with PBST for 5 times, TMB solution (100 uL) was added and developed at 37° C. for 10 min, add 2M H₂SO₄ (50 uL/well) was added to terminate the reaction, and the absorption value at 450 nm wavelength was measured with a microplate reader.

human VEGFC = target: T2, human VEGFC; experiment: as above
Experimental: as §2

human VEGFD = target: T3, human VEGFD; experiment: as above
Experimental: as §2

human VEGFA [6] = target: T4, human VEGFA; experiment: blocking ELISA: VEGFR2 coated, biotinylated VEGFA with antibody dilutions (FIG. 5); reference huNb24
Experimental: as §1

human VEGFA [7] = target: T4, human VEGFA; experiment: blocking ELISA: VEGFR1 coated, biotinylated VEGFA with antibody dilutions (FIG. 10)
Experimental: (1) VEGFR1 protein was coated on an enzyme plate (1 ug/mL, 100 uL/well) and incubated at 4° C. overnight. […] (4) After washing with PBST for 5 times, 100 uL SA-HRP (1:100000 dilution) was added and incubated at 37° C. for 1 hour. (5) After washing with PBST for 5 times, TMB solution (100 uL) was added and developed at 37° C. for 10 min, 2M H₂SO₄ (50 uL/well) was added to terminate the reaction, and the absorption value at 450 nm wavelength was measured with a microplate reader.

Binder | IC50 (human VEGFA [1]) [µg/mL] | IC50 (human VEGFA [2]) [µg/mL] | inhibitory effect on HUVEC cell proliferation (CCK8, OD450), IC50 (human VEGFA [3]) [ng/mL] | IC50 (human VEGFA [4]) [µg/mL] | IC50 (human VEGFA [5]) [µg/mL] | binding result (human VEGFB) | binding result (human VEGFC) | binding result (human VEGFD) | fold increase of blocking activity against huNb24 (human VEGFA [6]) [times] | IC50 (human VEGFA [7]) [µg/mL] | inhibitory effect on HUVEC cell proliferation, IC50 (human VEGFA [3]) [ng/mL]
B1 | 0.045 | 0.0149 | 29.6 |  |  |  |  |  |  |  | 
B2 | 0.038 |  |  | 0.044 |  |  |  |  |  |  | 
B3 |  |  |  | 0.013 | 0.022 | no binding (tested: 1 ug/mL) | no binding (tested: 1 ug/mL) | no binding (tested: 1 ug/mL) | > 3 | 0.168 | 53.6
